From patent US20230407297A1, “BIOENGINEERED WNT5A THERAPEUTICS FOR ADVANCED CANCERS” (The Regents of the University of California, priority 2020, published 2023)
Entries after “also recorded” stand apart in the source; their conditions may differ.

Experiments:
LuCaP 35CR organoids = assay: LuCaP 35CR organoids, ex vivo 3D Matrigel; format: cell-based; conditions: single treatment
Description: (§1) FIGS. 9A-9E. Targeting Wnt5A by BERA-Wnt5a siRNA resensitizes LuCaP35CR PDX organoids and tumor growth to enzalutamide treatment. FIG. 9A: Organoids derived from the LuCaP PDX model were established in an ex vivo 3D Matrigel format and treated with bioengineered BERA-Wnt5a siRNA. […] FIG. 9D: Mouse body weight was unaffected by all of the treatments.
(§2) To examine if targeting Wnt5a enhances enzalutamide treatment in resistant prostate cancer, we examined the combinational effects of targeting Wnt5a and enzalutamide in an ex vivo model. Organoids derived from the LuCaP PDX model were established in an ex vivo 3D Matrigel format and treated with bioengineered BERA-Wnt5a siRNA. […] To further determine the anti-tumor effects of Wnt5a inhibition in vivo, we employed a LuCaP 35CR patient derived xenograft model, which was treated with bioengineered BERA-Wnt5a siRNA.

LuCaP 35CR PDX tumors = assay: LuCaP 35CR patient derived xenograft model, combination with enzalutamide (Example 3); format: in vivo, mouse; conditions: single treatment
Description: as §1, §2

Wnt5A = Wnt5A expression in CWR22rv1 cells; format: cell-based
C4-2B MDVR cells = assay: C4-2B MDVR cell number, combination with antiandrogens; format: cell-based
Procedure: (§3) FIGS. 5A-5B. […] Resistant C4-2B MDVR and PS1172 CRC prostate cancer cells were treated with either enzalutamide (Enza) or Wnt5a siRNA (#1) or the combination (#1+Enza) for three days and 5 days, and the cell numbers were determined.
FIGS. 6A-6C. […] Resistant C4-2B MDVR prostate cancer cells were treated with either enzalutamide (Enza, 20 uM) or tRNA-1 (10 nM) or tRNA-2 (10 nM) or the combination (combination) for 3 days and 6 days, and the cell numbers were determined.
FIGS. 7A-7B. Combination of tRNA Wnt5a with antiandrogens in C4-2B MDVR cells. C4-2B MDVR cells were treated with tRNA Wnt5a and antiandrogens such as apalutamide (Apa), darolutamide (Daro), enzalutamide (enza) individually or combination for 3 days and 6 days and the cell number was determined.
(§4) Enzalutamide resistant C4-2B MDVR cells and PS1172 CRC cells were treated with either enzalutamide (20 μM) or Wnt5a siRNA (#1) or their combination (enza+#1) for 3 days and 5 days (C4-2B MDVR cells) or 3 days and 6 days (PS1172 CRC cells), and the cell numbers were determined.
Resistant C4-2B MDVR prostate cancer cells were treated with either enzalutamide (Enza, 20 uM) or tRNA-1 (10 nM) or tRNA-2 (10 nM) or their combination for 3 days and 6 days, and the cell numbers were determined.
Knockdown of Wnt5a by tRNA-Wnt5a siRNA enhances anti-androgen (enzalutamide, apalutamide, darolutamide) treatments (FIG. 7A). Resistant C4-2B MDVR cells were treated with tRNA Wnt5a siRNA-2 and antiandrogens such as apalutamide (Apa), darolutamide (Daro), enzalutamide (enza) individually or their combination for 3 days and 6 days and the cell number was determined.

PS1172 CRC cells = assay: PS1172 CRC cell number, combination with enzalutamide; format: cell-based; conditions: Wnt5a siRNA + enzalutamide 20 μM, 3 days and 6 days
Procedure: as §3, §4

[1] = system: enzalutamide resistant CWR22rv1 cells; assay: CWR22rv1 cell growth, alone and with enzalutamide; format: cell-based; conditions: for improvement of enzalutamide treatment: CWR22rv1 cells, combined with enzalutamide; for cell growth: enzalutamide resistant CWR22rv1 cells, single agent
Description: In addition to spectrometry and gel electrophoresis analyses of target Wnt5A-siRNAs during the purification described above, we conducted HPLC analysis to validate the purity of isolated siRNAs and LC-MS studies to verify RNA sequence and identify possible posttranscriptional modifications.

**Q.** Which results are given for `CNC(=O)c1ccc(N2C(=S)N(c3ccc(C#N)c(C(F)(F)F)c3)C(=O)C2(C)C)cc1F` [enzalutamide]?
**A.** organoid response (LuCaP 35CR organoids): resistant; PSA expression (LuCaP 35CR PDX tumors): without reaching significance; tumor growth (LuCaP 35CR PDX tumors): resistant

**Q.** Which Wnt5A expression (Wnt5A) does the source give for “Wnt5a siRNA (#1): siRNA specific to Wnt5a, 5′-ACAAACUGGUCCACGAUCUCCGUGC-3′ (expressed or natural sequence)” here?
**A.** downregulated Wnt5A expression

**Q.** And the “effect on enzalutamide treatment (cell numbers)” value (shortened to “effect … (cell numbers)”) (C4-2B MDVR cells; Wnt5a siRNA + enzalutamide 20 μM, 3 days and 5 days)?
**A.** synergistically enhanced enzalutamide treatment; also recorded: re-sensitize cells to enzalutamide

**Q.** What about the “effect … (cell numbers)” value (PS1172 CRC cells) of the same molecule?
**A.** synergistically enhanced enzalutamide treatment; also recorded: re-sensitize cells to enzalutamide

B1: tRNA-siWnt5A-1: bioengineered tRNA-pre-miRNA chimera (human tRNA Leu / pre-miR-34a carrier) carrying Wnt5a siRNA #1, FIG. 8A, SEQ ID NO:20 (nucleic acid)
chain: NNCNCAACANAAAAAACNNNGNGNAANACNNGNAACGCNGAANNCACCAGGANGGCCGAGNGGNNAAGGCGNNGGACNGGCCAGCNGNGAGNGNNNCNNACAAACUGGUCCACGAUCUCCGNGNGAGCAANAGNAAGGAAUGGAGAUCGGGAUCCAGUUUGCUAGAAGNGCNGCACGNNGNNGGCCCGANCCAANGGACANANGNCCGCGNGGGNNCGAACCCCACNCCNGGNACCACNGCAGANCCNNAGCGAAAGCNAAGGANNNNNNNN
modifications: modified_base (1)..(2) t or u; modified_base (4)..(4) t or u; modified_base (10)..(10) t or u; modified_base (18)..(20) t or u; modified_base (22)..(22) t or u; modified_base (24)..(24) t or u; modified_base (27)..(27) t or u; modified_base (30)..(31) t or u; modified_base (33)..(33) t or u; modified_base (39)..(39) t or u; modified_base (43)..(44) t or u; modified_base (53)..(53) t or u; modified
**Q.** With B1 as the molecule, how does the “improvement of enzalutamide treatment” value [1] read?
**A.** improved enzalutamide treatment; also recorded: improved enza treatment

**Q.** And the cell growth [1]?
**A.** inhibited cell growth

**Q.** And the Wnt5A expression (Wnt5A)?
**A.** downregulated Wnt5A expression

**Q.** What about the “effect … (cell numbers)” value (C4-2B MDVR cells; chimera 10 nM + Enza 20 uM, 3 days and 6 days, listed as tRNA-Wnt5a siRNA-1) of the same molecule?
**A.** enhanced enzalutamide; also recorded: synergizes enzalutamide

B2: tRNA-siWnt5A-2: bioengineered tRNA-pre-miRNA chimera (human tRNA Leu / pre-miR-34a carrier) carrying Wnt5a siRNA #2, FIG. 8B, SEQ ID NO:21 (nucleic acid)
chain: NNCNCAACANAAAAAACNNNGNGNAANACNNGNAACGCNGAANNCACCAGGANGGCCGAGNGGNNAAGGCGNNGGACNGGCCAGCNGNGAGNGNNNCNNCUAGGAAGAACUUGGAAGACAUNGNGAGCAANAGNAAGGAAGUGUCUUCCGGUCUUUUCCUACUAGAAGNGCNGCACGNNGNNGGCCCGANCCAANGGACANANGNCCGCGNGGGNNCGAACCCCACNCCNGGNACCACNGCAGANCCNNAGCGAAAGCNAAGGANNNNNNNN
modifications: modified_base (1)..(2) t or u; modified_base (4)..(4) t or u; modified_base (10)..(10) t or u; modified_base (18)..(20) t or u; modified_base (22)..(22) t or u; modified_base (24)..(24) t or u; modified_base (27)..(27) t or u; modified_base (30)..(31) t or u; modified_base (33)..(33) t or u; modified_base (39)..(39) t or u; modified_base (43)..(44) t or u; modified_base (53)..(53) t or u; modified
**Q.** With B2 as the molecule, how does the “improvement of enzalutamide treatment” value [1] read?
**A.** improved enzalutamide treatment; also recorded: improved enza treatment

**Q.** And the cell growth [1]?
**A.** inhibited cell growth

**Q.** And the Wnt5A expression (Wnt5A)?
**A.** downregulated Wnt5A expression

**Q.** What about the “effect … (cell numbers)” value (C4-2B MDVR cells; chimera 10 nM + Enza 20 uM, 3 days and 6 days, listed as tRNA-Wnt5a siRNA-2) of the same molecule?
**A.** enhanced enzalutamide; also recorded: synergizes enzalutamide

**Q.** And the “effect on apalutamide treatment (cell number)” value (C4-2B MDVR cells; combination with apalutamide, 3 days and 6 days)?
**A.** enhances

**Q.** And the “effect on darolutamide treatment (cell number)” value (C4-2B MDVR cells; combination with darolutamide, 3 days and 6 days)?
**A.** enhances

**Q.** And the “effect on enzalutamide treatment (cell number)” value (C4-2B MDVR cells; combination with enzalutamide, 3 days and 6 days)?
**A.** enhances
